Laboratory results taken from US20250011738A1, “HEAT TOLERANT ALKALINE PHOSPHATASE” (BiomEdit, LLC, priority 2021, published 2025).

Columns and labels:
Type in all cases: biochemical, Paenibacillus lentus
[1] = substrate: Nc1ncnc2c1ncn2[C@@H]1O[C@H](COP(=O)(O)OP(=O)(O)OP(=O)(O)O)[C@@H](O)[C@H]1O; test: Phosphate assay (Malachite green) with UDP, ATP and dAMP, APHT ("HT")
Experimental: (§1) FIG. 9 depicts (A)Vmax (IU/mg) and (B) KM (μM) activity of AP1 (designated “Native”) and APHT (designated “HT”) on UDP, ATP and dAMP. Assays were performed at 40° C. with p substrate concentration 0-5 mM in Tris buffer pH 8. The enzyme concentration was 2 μg/mL.
(§2) FIG. 10 depicts (A)Vmax (IU/mg) and (B) KM (μM) activity of AP1 (designated “Native”) and APHT (designated “HT”) with UDP, ATP and dAMP. Assays were performed at 50° C. with p substrate concentration 0-5 mM in DEA buffer pH 10. The enzyme concentration was 2 μg/mL.
(§3) To further improve the thermal stability, a set of synthetic alkaline phosphatase genes where each amino acid was mutated to other possibilities one at a time was constructed and evaluated. Numerous single amino acids changes improving heat tolerance were combined and incorporated into a mutated alkaline phosphatase version yielding the alkaline phosphatase heat tolerant molecule designated APHT. […] (FIG. 4), and has a total of 16 amino acid changes from the original AP1 sequence (see FIG. 5A and B). In FIG. 5A, the AP1 with a serine mutation is designated as “AP Native” and is depicted in sequence with a leader sequence ASGFYVSGT (SEQ ID NO:13). The AP1 with leader sequence ASGFYVSGT is provided in SEQ ID NO:14). The APHT polypeptide with leader sequence ASGFYVSGT is provided in SEQ ID NO:15). In FIG. 5B, the AP1 with a serine mutation and without any leader sequence or leader peptide amino acids (SEQ ID NO:4) is aligned and compared with the APHT without any leader sequence or leader peptide amino acids (SEQ ID NO:1). The 16 amino acid changes in APHT are evident. The APHT amino acid sequence (excluding and without any leader sequence and starting with amino acids ESSN) is 97% identical to the sequence of AP1 (excluding and without any leader sequence and starting with amino acids ESSN).
(§4) The APHT sequence (SEQ ID NO: 1) is provided below with the amino acid mutations versus the AP1 sequence underlined and in bold.
(§5) 5. Phosphate Assay with Biological Substrates UDP, ATP, and dAMP (Native and HT)
(§6) Phosphatase activity with UDP, ATP and dAMP was assessed by measuring the release of […] with the Malachite green reagent (Sigma) at 40° C. and 50° C. Assay consisted of nucleotide phosphate in the concentration range 0-5 mM, 2 μg/mL AP in a final volume of 100 μL. The reaction was initiated in a 96-well microplate with the addition of enzyme and incubated for 5 min. After this time, 10 μL of reaction were mixed with 90 μL of water 25 μL of Malachite green solution. The microplate was shaken for 20 min at 25° C. and absorption was recorded at 620 nm. As standard pyrophosphate solution in water was used in the concentration range of 0-40 μM. Each experiment was done by triplicated at least.

[2] = substrate: O=c1ccn([C@@H]2O[C@H](COP(=O)(O)OP(=O)(O)O)[C@@H](O)[C@H]2O)c(=O)[nH]1; test: as above
Experimental: as §1, §2, §3, §4, §5, §6

[3] = substrate: Nc1ncnc2c1ncn2[C@H]1C[C@H](O)[C@@H](COP(=O)(O)O)O1; test: as above
Experimental: as §1, §2, §3, §4, §5, §6

[4] = substrate: Nc1ncnc2c1ncn2[C@@H]1O[C@H](COP(=O)(O)OP(=O)(O)OP(=O)(O)O)[C@@H](O)[C@H]1O; test: Dephosphorylation of substrates UDP, ATP and dAMP (Example 4, Table 11); conditions: other: Table 11; conditions not given
Experimental: (§7) The inorganic phosphorous release (μM) from each of these sources by the heat tolerant HTAP was determined and is shown in FIG. 12. […] The inorganic phosphorous release (μM) was also assessed from the metabolically relevant compounds phosphocholine, phosphocreatine and phytic acid and compared with native AP. The heat tolerant HTAP was comparably active vs native AP in Pi release from each of compounds phosphocholine, phosphocreatine and phytic acid (data not shown).
(§8) Dephosphorylation of substrates UDP, ATP and dAMP was also assessed and determined.

[5] = substrate: O=c1ccn([C@@H]2O[C@H](COP(=O)(O)OP(=O)(O)O)[C@@H](O)[C@H]2O)c(=O)[nH]1; test: as above; conditions: other: Table 11; conditions not given
Experimental: as §7, §8

[6] = substrate: Nc1ncnc2c1ncn2[C@H]1C[C@H](O)[C@@H](COP(=O)(O)O)O1; test: as above; conditions: other: Table 11; conditions not given
Experimental: as §7, §8

[7] = substrate: Nc1ncnc2c1ncn2[C@@H]1O[C@H](COP(=O)(O)OP(=O)(O)OP(=O)(O)O)[C@@H](O)[C@H]1O; test: Phosphate assay (Malachite green) with UDP, ATP and dAMP, AP1 ("Native")
Experimental: as §1, §2
(§9) Enzymes, including lysozyme and alkaline phosphatase, are recognized as disruptors of bacterial debris and inflammation. These enzymes reduce inflammation, including by lysing the peptidoglycans and LPS of bacteria, thus deactivating them and thereby bypassing the inflammatory response. An alkaline phosphatase was initially identified and modified from Paenibacillus lentus bacteria and expressed for application and use as a farm animal feed additive. This modified alkaline phosphatase is characterized by having a serine (S) replacement for an aspartic acid (D) in the native bacterial alkaline phosphatase protein sequence and is designated herein as AP1. […] The AP1 alkaline phosphate is described including in U.S. Pat. No. 9,326,535 issued May 3, 2016. The sequence of AP1 is as follows (the serine is in bold and underlined) (SEQ ID NO:4):
as §5, §6

[8] = substrate: O=c1ccn([C@@H]2O[C@H](COP(=O)(O)OP(=O)(O)O)[C@@H](O)[C@H]2O)c(=O)[nH]1; test: as above
Experimental: as §1, §2, §9, §5, §6

[9] = substrate: Nc1ncnc2c1ncn2[C@H]1C[C@H](O)[C@@H](COP(=O)(O)O)O1; test: as above
Experimental: as §1, §2, §9, §5, §6

[10] = other: 40° C., Tris buffer pH 8, enzyme 2 μg/mL, pH 8.0, 40.0 °C
[11] = other: 50° C., DEA buffer pH 10, enzyme 2 μg/mL, pH 10.0, 50.0 °C

B1: Paenibacillus lentus alkaline phosphatase AP1 heat tolerant mutant APHT (designated "HT"), 16 amino acid changes from AP1, SEQ ID NO: 1 (Paenibacillus lentus; … (protein)
chain: ESSNGQSKNLIVLIGDGMGPAQVSAARYFQQHINNINSLNLDPYYVGQATTYADRGEDGGHIVSGIITSSAAAGTAIATGNKTNNAAISVSNEDVSRPFASVHEAAELSGKSTGLVTTARITHATPAVYGSHVRNRDNENAIAFQYLDSGIDVLLGGGESFFVTNEEKGKRNDKNLLPEFEAKGYKVVKNGQSLKSLSAKDAKVLGLFGGSHIPYVPDRSDETPSLAEMTSKALEILSTNENGFAIMIEGGRIDHAAHANDFPTMVQEMLAFDEAFKVAIDFAKKDGNTSVVVTADHETGGLSLGRDNIYELNVDLWNKQKNSSESLVSALNEAKTIADVKKIVSDNTWITDLTNEEAQYILDGDGSSYKREGGYNAVISKRLLVGWSGHGHSAVDVGVWAYGPIADKVKGQIDNTRIATASAEVLGVDLKKATADLQSKYLYPKFKINRNKEVLFPAKPLAEALGGKYQAANGTATISGMSGTITVDLNAKKAKLSGNSSEITIDVDNDVLYLPLTAFSQITGQTLKWDALSERIMLK
Question: For B1, which Km [1, 10] is on record?
Answer: The Km was 97 µM.

Question: And the Vmax [1, 10]?
Answer: The Vmax was 358 IU/mg.

Question: And the Km [1, 11]?
Answer: Its Km is 283 µM.

Question: What about the Vmax [1, 11] of the same protein?
Answer: The Vmax was 380 IU/mg.

Question: And the Km [2, 10]?
Answer: Its Km is 93 µM.

Question: What about the Vmax [2, 10] of the same protein?
Answer: Its Vmax is 631 IU/mg.

Question: What about the Km [2, 11] of the same protein?
Answer: The Km was 121 µM.

Question: What about the Vmax [2, 11] of the same protein?
Answer: The Vmax was 521 IU/mg.

Question: What about the Km [3, 10] of the same protein?
Answer: The Km was 165 µM.

Question: And the Vmax [3, 10]?
Answer: Its Vmax is 262 IU/mg.

Question: What about the Km [3, 11] of the same protein?
Answer: Its Km is 623 µM.

Question: And the Vmax [3, 11]?
Answer: Its Vmax is 472 IU/mg.

B2: Paenibacillus lentus alkaline phosphatase AP1 heat tolerant mutant APHT (HTAP), SEQ ID NO: 1 (Paenibacillus lentus; … (protein)
chain: ESSNGQSKNLIVLIGDGMGPAQVSAARYFQQHINNINSLNLDPYYVGQATTYADRGEDGGHIVSGIITSSAAAGTAIATGNKTNNAAISVSNEDVSRPFASVHEAAELSGKSTGLVTTARITHATPAVYGSHVRNRDNENAIAFQYLDSGIDVLLGGGESFFVTNEEKGKRNDKNLLPEFEAKGYKVVKNGQSLKSLSAKDAKVLGLFGGSHIPYVPDRSDETPSLAEMTSKALEILSTNENGFAIMIEGGRIDHAAHANDFPTMVQEMLAFDEAFKVAIDFAKKDGNTSVVVTADHETGGLSLGRDNIYELNVDLWNKQKNSSESLVSALNEAKTIADVKKIVSDNTWITDLTNEEAQYILDGDGSSYKREGGYNAVISKRLLVGWSGHGHSAVDVGVWAYGPIADKVKGQIDNTRIATASAEVLGVDLKKATADLQSKYLYPKFKINRNKEVLFPAKPLAEALGGKYQAANGTATISGMSGTITVDLNAKKAKLSGNSSEITIDVDNDVLYLPLTAFSQITGQTLKWDALSERIMLK
Question: With B2 as the protein, how does the Km [4] read?
Answer: Its Km is 399 ± 68 µM.

Question: And the kcat [4]?
Answer: Its kcat is 0.1 ± 0.00333 s⁻¹.

Question: What about the Km [5] of the same protein?
Answer: Its Km is 166 ± 14 µM.

Question: What about the kcat [5] of the same protein?
Answer: The kcat was 0.125 ± 0.00167 s⁻¹.

Question: And the Km [6]?
Answer: The Km was 242 ± 27 µM.

Question: And the kcat [6]?
Answer: The kcat was 0.132 s⁻¹.

B3: Paenibacillus lentus alkaline phosphatase AP1 (designated "Native"), serine (S) replacement for an aspartic acid (D), SEQ ID NO: 4 (Paenibacillus lentus; D102S) (protein)
chain: ESSNGQSKNLIVLIGDGMGPAQVSAARYFQQHKNNINSLNLDPYYVGQATTYADRGEDGGHIVSGIVTSSASAGTAFATGNKTYNAAISVSNEDVSRPFASVLEAAELSGKSTGLVTTARITHATPAVYASHVRSRDNENAIAFQYLDSGIDVLLGGGESFFVTKEEKGKRNDKNLLPEFEAKGYKVVKTGQSLKSLSAKDAKVLGLFGGSHIAYVPDRSDETPSLAEMTSKALEILSTNENGFAIMIEGGRIDHAGHANDFPTMVQEALDFDEAFKVAIDFAKKDGNTSVVVTADHETGGLSLSRDNIYELNVDLWNKQKNSSESLVSALNEAKTIADVKKIVSDNTWITDLTNEEAQYILDGDGSSYKREGGYNAVISKRLLVGWSGHGHSAVDVGVWAYGPIADKVKGQIDNTRIATASAEVLGVDLKKATADLQSKYLYPKFKINRNKEVLFPAKPLAEALGGKYQAANGTATISGMSGTITVDLNAKKAKLSGNSSSITIDVDNDVLYLPLTAFSQITGQTLKWDALSERIMLK
Question: With B3 as the protein, how does the Km [7, 10] read?
Answer: The Km was 110 µM.

Question: And the Vmax [7, 10]?
Answer: Its Vmax is 336 IU/mg.

Question: What about the Km [7, 11] of the same protein?
Answer: The Km was 210 µM.

Question: And the Vmax [7, 11]?
Answer: Its Vmax is 578 IU/mg.

Question: And the Km [8, 10]?
Answer: Its Km is 74 µM.

Question: And the Vmax [8, 10]?
Answer: Its Vmax is 447 IU/mg.

Question: And the Km [8, 11]?
Answer: Its Km is 83 µM.

Question: What about the Vmax [8, 11] of the same protein?
Answer: The Vmax was 608 IU/mg.

Question: And the Km [9, 10]?
Answer: Its Km is 113 µM.

Question: And the Vmax [9, 10]?
Answer: Its Vmax is 356 IU/mg.

Question: And the Km [9, 11]?
Answer: Its Km is 199 µM.

Question: What about the Vmax [9, 11] of the same protein?
Answer: The Vmax was 730 IU/mg.
